# Measurements from patent US20190048085A1 (CELL MEDICA SWITZERLAND, published 2019).
# B1: anti-PD-L1 scFv (scFv)
# scFv: EIVMTQSPSTLSASVGDRVIITCQASEDIYSLLAWYQQKPGKAPKLLIYDASDLASGVPSRFSGSGSGAEFTLTISSLQPDDFATYYCQGNYGSSSSSSYGAVFGQGTKLTVLGGGGGSGGGGSGGGGSGGGGSEVQLVESGGGLVQPGGSLRLSCTVSGIDLSSYTMGWVRQAPGKGLEWVGIISSGGRTYYASWAKGRFTISRDTSKNTVYLQMNSLRAEDTAVYYCARGRYTGYPYYFALWGQGTLVTVSS
# notes: Humanized scFv with rabbit CDRs, VL-linker-VH; also called scFv1; scFv control
# Key:
# [1] = molecular target: monkey PD-L1 Fc fusion (monkey (Rhesus macaque, Macaca mulatta)) (UniProt F6PJN1); test: KinExA, ratio of KD values
# [2] = molecular target: monkey PD-L1 Fc fusion (monkey (Rhesus macaque, Macaca mulatta)) (UniProt F6PJN1); test: KinExA, room temperature, two curves (50 pM and 10 pM scFv)
# [3] = molecular target: T1, recombinant human PD-L1 Fc fusion (human, UniProt Q9NZQ7 19-239); test: ELISA on immobilized recombinant human PD-L1-Fc (2 µg/mL), detection with Protein L-HRP, A450 nm
# T1 construct: Bought Fc fusion (RnD Systems 156-B7); also called rhPD-L1 Fc fusion; not shown: Fc part of the bought fusion
# T1 sequence (Q9NZQ7 19-239 limits assumed): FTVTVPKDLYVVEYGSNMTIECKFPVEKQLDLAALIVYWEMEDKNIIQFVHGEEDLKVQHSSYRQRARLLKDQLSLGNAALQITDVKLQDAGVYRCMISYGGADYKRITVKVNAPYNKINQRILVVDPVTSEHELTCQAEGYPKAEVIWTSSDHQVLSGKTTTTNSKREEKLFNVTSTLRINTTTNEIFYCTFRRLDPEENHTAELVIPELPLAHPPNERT
# Method: After, blocking with 5% non-fat dry milk, increasing concentrations of scFv was added and detected by Protein L-HRP (Sigma-Aldrich).
binder,measurement,setting,value
B1,fold tighter affinity than binding to human PD-L1,[1],2.7 fold
same,Kd,[2],3.3 pM
same,EC50 (read off the curve),[3],~8 ng/mL
